Experiment [1] addresses T1, HER3 on HER3-expressing cancer cells (LIM1215, BT474) (UniProt P21860 20-1342, limits assumed).
T1 construct: whole, on cells; also called HER3-expressing LIM1215 cells; HER3-expressing BT474 cells
Kind of experiment: flow cytometry on HER3-expressing BT474 cells, PE anti-human Fc. For orientation: In flow cytometry, cells or beads pass a laser one at a time.

The target in experiment [2] is T2, CD3 on CD3-expressing Jurkat cells (human, UniProt P07766 23-207).
T2 construct: whole, on cells
Kind of experiment: flow cytometry on CD3-expressing Jurkat cells, PE anti-human Fc.

The target of experiment [3] is T1, HER3 on HER3-expressing cancer cells …. Kind of experiment: cell-based or functional assay.
For experiment [4] the target is unchanged. Kind of experiment: flow cytometry on HER3-expressing LIM1215 cells, PE anti-human Fc.
Experiment [5] has the same target. Kind of experiment: cell-based or functional assay. This is another data set of the same source.
The target of experiment [6] is T3, His-tagged HER3 protein, extracellular domain (ECD) of HER3 (aa 21-643) (UniProt P21860 21-643).
T3 construct: range 21-643; also called HER3-His; not shown: His-tag
Kind of experiment: ELISA, immobilized HER3-His, anti-human Fc-HRP detection. (In an ELISA, binding on a coated surface is turned into a signal by an enzyme label.)

Experiment [7] deals with T4, Flag-tagged FAP protein, extracellular domain of FAP (aa 32-728) (UniProt Q12884 32-728).
T4 construct: range 32-728; also called FAP-Flag; not shown: Flag-tag
Kind of experiment: ELISA, immobilized FAP-Flag, anti-human Fc-HRP detection.

In experiment [8] the target is T5, mouse CD3 on murine spleenocytes (mouse, UniProt P22646 22-189).
T5 construct: whole, on cells; also called murine CD3-expressing murine spleenocytes; moCD3
Kind of experiment: flow cytometry on murine spleenocytes (mouse CD3), PE anti-human Fc.

For experiment [9], the target named is T6, FAP on FAP-expressing HT1080-FAP cells (UniProt Q12884 1-760, limits assumed).
T6 construct: whole, on cells
Kind of experiment: flow cytometry on FAP-expressing HT1080-FAP cells, PE anti-human Fc.

By EC50 is commonly meant the concentration giving half of the maximal effect. Lower therefore signals greater potency.

T5 sequence (P22646 22-189): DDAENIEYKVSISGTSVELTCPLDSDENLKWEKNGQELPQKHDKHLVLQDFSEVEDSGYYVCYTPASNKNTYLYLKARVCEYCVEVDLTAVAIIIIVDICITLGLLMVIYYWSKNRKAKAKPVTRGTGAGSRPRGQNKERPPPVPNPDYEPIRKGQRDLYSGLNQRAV
T2 sequence (P07766 23-207): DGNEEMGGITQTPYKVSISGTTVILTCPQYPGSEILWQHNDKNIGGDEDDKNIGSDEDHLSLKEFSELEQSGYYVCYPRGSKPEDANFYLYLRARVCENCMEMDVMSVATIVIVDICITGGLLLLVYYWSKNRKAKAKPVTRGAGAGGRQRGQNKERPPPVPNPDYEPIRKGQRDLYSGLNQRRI

B1: bispecific, trivalent eIg-Fab3 targeting HER3 and CD3 (bispecific antibody)
light 1: QAGLTQPPAVSVAPGQTASITCGRDNIGSRSVHWYQQKPGQAPVLVVYDDSDRPAGIPERFSGSNYENTATLTISRVEAGDEADYYCQVWGITSDHVVFGGGTKLTVLGQPKAAPSVTLFPPSSEELQANKATLVCLISDFYPGAVTVAWKADSSPVKAGVETTTPSKQSNNKYAASSYLSLTPEQWKSHRSYSCQVTHEGSTVEKTVAPTECS
light 2: not shown
heavy 1: QVQLVQSGAEVKKPGSSVKVSCKASGGTFSGYTMNWVRQAPGQGLEWMGLINPYKGVSTYNGKFKDRVTITADKSTSTAYMELSSLRSEDTAVYYCARSGYYGDSDWYFDVWGQGTLVTVSSDFTPPTVKILQSSCDGGGHFPPTIQLLCLVSGYTPGTINITWLEDGQVMDVDLSTASTTQEGELASTQSELTLSQKHWLSDRTYTCQVTYQGHTFEDSTKKSADSNGGSGGGGSGGQVQLQQSGPGLVKPSQTLSLTCAISGDSVSSNRAAWNWIRQSPSRGLEWLGRTYYRSKWYNDYAQSLKSRITINPDTPKNQFSLQLNSVTPEDTAVYYCARDGQLGLDALDIWGQGTMVTVSSASTKGPSVFPLAPSSKSTSGGTAALGCLVKDYFPEPVTVSWNSGALTSGVHTFPAVLQSSGLYSLSSVVTVPSSSLGTQTYICNVNHKPSNTKVDKKVEPKSCGTDKTHTCPPCPAPPVAGPSVFLFPPKPKDTLMISRTPEVTCVVVDVSHEDPEVKFNWYVDGVEVHNAKTKPREEQYNSTYRVVSVLTVLHQDWLNGKEYKCKVSNKGLPSSIEKTISKAKGQPREPQVYTLPPCRDELTKNQVSLWCLVKGFYPSDIAVEWESNGQPENNYKTTPPVLDSDGSFFLYSKLTVDKSRWQQGNVFSCSVMHEALHNHYTQKSLSLSPGK
heavy 2: QVQLQQSGPGLVKPSQTLSLTCAISGDSVSSNRAAWNWIRQSPSRGLEWLGRTYYRSKWYNDYAQSLKSRITINPDTPKNQFSLQLNSVTPEDTAVYYCARDGQLGLDALDIWGQGTMVTVSSASTKGPSVFPLAPSSKSTSGGTAALGCLVKDYFPEPVTVSWNSGALTSGVHTFPAVLQSSGLYSLSSVVTVPSSSLGTQTYICNVNHKPSNTKVDKKVEPKSCGTDKTHTCPPCPAPPVAGPSVFLFPPKPKDTLMISRTPEVTCVVVDVSHEDPEVKFNWYVDGVEVHNAKTKPREEQYNSTYRVVSVLTVLHQDWLNGKEYKCKVSNKGLPSSIEKTISKAKGQPREPQVCTLPPSRDELTKNQVSLSCAVKGFYPSDIAVEWESNGQPENNYKTTPPVLDSDGSFFLVSKLTVDKSRWQQGNVFSCSVMHEALHNHYTQKSLSLSPGK
In the case of B1, the EC50 is 0.2 nM in experiment [1], 1.1 nM in experiment [2] and 0.4 nM in experiment [4]. Further, the “EC50 value in cell killing (PBMC-mediated cytotoxicity on BT-474 cells, crystal violet)” value in [3] was determined as 0.5 nM. In addition, the “EC50 value in cell killing (PBMC-mediated cytotoxicity on LIM1215 cells, crystal violet)” value in experiment [3] stood at 0.4 nM. The “potency in cell killing relative to eIg-Fab4” value in experiment [5] is around 4 fold.

B2: bivalent and bispecific eIg molecule targeting HER3 and FAP (bispecific antibody)
light 1: QAGLTQPPAVSVAPGQTASITCGRDNIGSRSVHWYQQKPGQAPVLVVYDDSDRPAGIPERFSGSNYENTATLTISRVEAGDEADYYCQVWGITSDHVVFGGGTKLTVLGQPKAAPSVTLFPPSSEELQANKATLVCLISDFYPGAVTVAWKADSSPVKAGVETTTPSKQSNNKYAASSYLSLTPEQWKSHRSYSCQVTHEGSTVEKTVAPTECS
heavy 1: not shown
light 2: DIQMTQSPSSLSASVGDRVTITCRASKSVSTSAYSYMHWYQQKPGKAPKLLIYLASNLESGVPSRFSGSGSGTDFTLTISSLQPEDFATYYCQHSRELPYTFGQGTKLEIKRDFTPPTVKILQSSSDGGGHFPPTIQLLCLVSGYTPGTIQITWLEDGQVMDVDLSTASTTQEGELASTQSELTLSQKHWLSDRTYTCQVTYQGHTFEDSTKKCADSN
heavy 2: not shown
notes: Four different polypeptide chains; one site for HER3, one for FAP; also called eIg antibody targeting HER3 and FAP
Turning to B2, the results for the EC50 in experiment [6] and in [7] were 3.4 nM and 7.6 nM, respectively.

B3: bivalent and bispecific eIg molecule targeting FAP and mouse CD3, molecule I (bispecific antibody)
light 1: DIQMTQSPSSLSASVGDRVTITCRASKSVSTSAYSYMHWYQQKPGKAPKLLIYLASNLESGVPSRFSGSGSGTDFTLTISSLQPEDFATYYCQHSRELPYTFGQGTKLEIKRRTVAAPSVFIFPPSDEQLKSGTASVVCLLNNFYPREAKVQWKVDNALQSGNSQESVTEQDSKDSTYSLSSTLTLSKADYEKHKVYACEVTHQGLSSPVTKSFNRGEC
heavy 1: QVQLVQSGAEVKKPGASVKVSCKASGYTFTENIIHWVRQAPGQGLEWMGWFHPGSGSIKYNEKFKDRVTMTADTSTSTVYMELSSLRSEDTAVYYCARHGGTGRGAMDYWGQGTLVTVSSASTKGPSVFPLAPSSKSTSGGTAALGCLVKDYFPEPVTVSWNSGALTSGVHTFPAVLQSSGLYSLSSVVTVPSSSLGTQTYICNVNHKPSNTKVDKKVEPKSCGTDKTHTCPPCPAPPVAGPSVFLFPPKPKDTLMISRTPEVTCVVVDVSHEDPEVKFNWYVDGVEVHNAKTKPREEQYNSTYRVVSVLTVLHQDWLNGKEYKCKVSNKGLPSSIEKTISKAKGQPREPQVCTLPPSRDELTKNQVSLSCAVKGFYPSDIAVEWESNGQPENNYKTTPPVLDSDGSFFLVSKLTVDKSRWQQGNVFSCSVMHEALHNHYTQKSLSLSPGK
light 2: EVQLVESGGGLVQPGKSLKLSCEASGFTFSGYGMHWVRQAPGRGLESVAYITSSSINIKYADAVKGRFTVSRDNAKNLLFLQMNILKSEDTAMYYCARFDWDKNYWGQGTMVTVSSDFTPPTVKILQSSSDGGGHFPPTIQLLCLVSGYTPGTIQITWLEDGQVMDVDLSTASTTQEGELASTQSELTLSQKHWLSDRTYTCQVTYQGHTFEDSTKKCADSN
heavy 2: DIQMTQSPSSLPASLGDRVTINCQASQDISNYLNWYQQKPGKAPKLLIYYTNKLADGVPSRFSGSGSGRDSSFTISSLESEDIGSYYCQQYYNYPWTFGPGTKLEIKDFTPPTVKILQSSCDGGGHFPPTIQLLCLVSGYTPGTINITWLEDGQVMDVDLSTASTTQEGELASTQSELTLSQKHWLSDRTYTCQVTYQGHTFEDSTKKSADSNGTDKTHTCPPCPAPPVAGPSVFLFPPKPKDTLMISRTPEVTCVVVDVSHEDPEVKFNWYVDGVEVHNAKTKPREEQYNSTYRVVSVLTVLHQDWLNGKEYKCKVSNKGLPSSIEKTISKAKGQPREPQVYTLPPCRDELTKNQVSLWCLVKGFYPSDIAVEWESNGQPENNYKTTPPVLDSDGSFFLYSKLTVDKSRWQQGNVFSCSVMHEALHNHYTQKSLSLSPGK
notes: In molecule I the 2C11 VH sits on the 'light chain' and the VL on the Fc-bearing chain; also called eIg FAP × moCD3 I
As for B3, the EC50 in experiment [8] is 7.3 nM; in [9], 2.9 nM.

B4: bivalent and bispecific eIg molecule targeting FAP and mouse CD3, molecule II (bispecific antibody)
light 1: DIQMTQSPSSLSASVGDRVTITCRASKSVSTSAYSYMHWYQQKPGKAPKLLIYLASNLESGVPSRFSGSGSGTDFTLTISSLQPEDFATYYCQHSRELPYTFGQGTKLEIKRRTVAAPSVFIFPPSDEQLKSGTASVVCLLNNFYPREAKVQWKVDNALQSGNSQESVTEQDSKDSTYSLSSTLTLSKADYEKHKVYACEVTHQGLSSPVTKSFNRGEC
heavy 1: QVQLVQSGAEVKKPGASVKVSCKASGYTFTENIIHWVRQAPGQGLEWMGWFHPGSGSIKYNEKFKDRVTMTADTSTSTVYMELSSLRSEDTAVYYCARHGGTGRGAMDYWGQGTLVTVSSASTKGPSVFPLAPSSKSTSGGTAALGCLVKDYFPEPVTVSWNSGALTSGVHTFPAVLQSSGLYSLSSVVTVPSSSLGTQTYICNVNHKPSNTKVDKKVEPKSCGTDKTHTCPPCPAPPVAGPSVFLFPPKPKDTLMISRTPEVTCVVVDVSHEDPEVKFNWYVDGVEVHNAKTKPREEQYNSTYRVVSVLTVLHQDWLNGKEYKCKVSNKGLPSSIEKTISKAKGQPREPQVCTLPPSRDELTKNQVSLSCAVKGFYPSDIAVEWESNGQPENNYKTTPPVLDSDGSFFLVSKLTVDKSRWQQGNVFSCSVMHEALHNHYTQKSLSLSPGK
light 2: DIQMTQSPSSLPASLGDRVTINCQASQDISNYLNWYQQKPGKAPKLLIYYTNKLADGVPSRFSGSGSGRDSSFTISSLESEDIGSYYCQQYYNYPWTFGPGTKLEIKDFTPPTVKILQSSSDGGGHFPPTIQLLCLVSGYTPGTIQITWLEDGQVMDVDLSTASTTQEGELASTQSELTLSQKHWLSDRTYTCQVTYQGHTFEDSTKKCADSN
heavy 2: EVQLVESGGGLVQPGKSLKLSCEASGFTFSGYGMHWVRQAPGRGLESVAYITSSSINIKYADAVKGRFTVSRDNAKNLLFLQMNILKSEDTAMYYCARFDWDKNYWGQGTMVTVSSDFTPPTVKILQSSCDGGGHFPPTIQLLCLVSGYTPGTINITWLEDGQVMDVDLSTASTTQEGELASTQSELTLSQKHWLSDRTYTCQVTYQGHTFEDSTKKSADSNGTDKTHTCPPCPAPPVAGPSVFLFPPKPKDTLMISRTPEVTCVVVDVSHEDPEVKFNWYVDGVEVHNAKTKPREEQYNSTYRVVSVLTVLHQDWLNGKEYKCKVSNKGLPSSIEKTISKAKGQPREPQVYTLPPCRDELTKNQVSLWCLVKGFYPSDIAVEWESNGQPENNYKTTPPVLDSDGSFFLYSKLTVDKSRWQQGNVFSCSVMHEALHNHYTQKSLSLSPGK
notes: also called eIg FAP × moCD3 II; second molecule
As for B4, the results for the EC50 in experiment [8] and in [9] were 24.2 nM and 2.7 nM, respectively.

The values above are taken from patent US20220372147A1 (UNIVERSIT T STUTTGART, published 2022).
